Data from patent US20260167733A1 (CLEVELAND CLINIC FOUNDATION, published 2026).

B1: Anti-AMHR2-ED 4D12G1 Chimeric antibody (antibody, human IgG1, kappa, V domains shown)
VH: DVKLVESGGGLVKLGGSLKLSCAASGFTFSRYFMSWVRQTPEKRLELVAAINSDGGRTYYPDTVKGRFTISRDNAKNTLYLQMSSLKSEDTALYYCTRHIYSYYEDYFDYWGQGTTLTVSS
VL: DVVMTQTPLSLPVSLGDQASISCRSSQSLVHSNGNTYLHWYLQKPGQSPKLLIYKVSKRFSGVPDRFSGSGSGTDFTLKISRVEAEDLGVYFCSQSTHVYTFGGGTKLEIKR
notes: also called chimeric 4D12G1 mAb; Chimeric 4D12G1
B2: Anti-AMHR2-ED 4D12G1 Variant 5 antibody (antibody, human IgG1, kappa)
heavy: not shown
light: DVVMTQTPLSSPVTLGQPASISCRSSQSLVHSNGNTYLHWYQQRPGQPPKLLIYKVSKRFSGVPDRFSGSGSGTDFTLKISRVEAEDVGVYFCSQSTHVYTFGQGTKLEIKRTVAAPSVFIFPPSDEQLKSGTASVVCLLNNFYPREAKVQWKVDNALQSGNSQESVTEQDSKDSTYSLSSTLTLSKADYEKHKVYACEVTHQGLSSPVTKSFNRGEC
notes: Humanized variant of 4D12G1; also called humanized 4D12G1 variant 5 mAb; 4D12G1 variant 5 mAb
B3: Anti-AMHR2-ED 4D12G1 Variant 6 antibody (antibody, human IgG1, kappa)
heavy: not shown
light: DVVMTQTPLSSPVTLGQPASISCRSSQSLVHSNGNTYLHWYQQRPGQPPKLLIYKVSKRFSGVPDRFSGSGSGTDFTLKISRVEAEDVGVYFCSQSTHVYTFGQGTKLEIKRTVAAPSVFIFPPSDEQLKSGTASVVCLLNNFYPREAKVQWKVDNALQSGNSQESVTEQDSKDSTYSLSSTLTLSKADYEKHKVYACEVTHQGLSSPVTKSFNRGEC
notes: Humanized variant of 4D12G1; also called humanized 4D12G1 variant 6 mAb; Hu4D12G1-6

target: T1, human AMHR2 on AMHR2-OVCAR8 cells (human, UniProt Q16671 18-573); experiment: flow cytometry on AMHR2-OVCAR8 cells
T1 construct: whole, on cells; Also the target in IHC of human HGSOC tumour tissue sections; also called AMHR2-ED on human EOC cells; anti-Mullerian hormone receptor type II
T1 sequence (looked up): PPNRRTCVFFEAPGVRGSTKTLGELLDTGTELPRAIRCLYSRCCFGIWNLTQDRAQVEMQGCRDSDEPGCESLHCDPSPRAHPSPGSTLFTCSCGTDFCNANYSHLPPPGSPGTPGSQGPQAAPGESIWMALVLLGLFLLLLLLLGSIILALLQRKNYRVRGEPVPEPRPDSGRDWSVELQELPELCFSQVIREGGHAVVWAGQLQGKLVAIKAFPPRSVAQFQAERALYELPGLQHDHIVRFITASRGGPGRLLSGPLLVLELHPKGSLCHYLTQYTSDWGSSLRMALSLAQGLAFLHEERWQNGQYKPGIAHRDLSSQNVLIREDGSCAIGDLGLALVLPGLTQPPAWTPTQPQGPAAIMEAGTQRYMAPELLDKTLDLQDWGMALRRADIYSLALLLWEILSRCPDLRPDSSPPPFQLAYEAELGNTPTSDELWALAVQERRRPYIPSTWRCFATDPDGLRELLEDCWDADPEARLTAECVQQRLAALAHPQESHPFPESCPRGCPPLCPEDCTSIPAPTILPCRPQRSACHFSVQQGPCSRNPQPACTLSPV
Protocol: The human AMHR2-OVCAR8 cells expressing high levels of human AMHR2 were treated with Fc-receptor block (BD Biosciences, San Jose, CA) and immunostained with 5 μg of a human isotype control IgG1 mAb as well as with 5 μg of the chimeric 4D12G1 mAb and variants 5 and 6 of the humanized 4D12G1 mAb. Cells were then treated with FITC-labeled goat anti-human IgG (BD Biosciences) and analyzed by flow cytometry using a FACSAria II flow cytometer and BDFacsDiva software (BD Biosciences). […] Insets show darkly staining regions of AMHR2-ED expression which occurs primarily in the parenchyma, with some staining also visible in the stroma.

Binding result, binds:
B1
B2
B3
